In patent US20160176924A1, “MODIFIED PEPTIDES AS POTENT INHIBITORS OF THE PSD-95/NMDA RECEPTOR INTERACTION” (priority 2008, published 2016):

Legend:
Assay in all cases: FP competition, fluorescent NR2B probe
[1] = target: HIS-PDZ1 protein (PSD-95 PDZ1, residues 61-151, with tag …) (human) (UniProt P78352)
[2] = target: HIS-PDZ2 protein (PSD-95 PDZ2, residues 155-249, with tag …) (human) (UniProt P78352)
[3] = target: HIS-PDZ1-2 protein (PSD-95 PDZ1-2 tandem, residues 61-249, with tag …) (human) (UniProt P78352)

Substance: ESDV (8) with D-Glu instead of L-Glu (peptide)
- fold impairment of affinity relative to peptide 1 [1]: > 25 fold
- fold impairment of affinity relative to peptide 1 [2]: > 25 fold

Substance: SDV (9) (peptide)
- fold increase in Ki compared to peptide 1 [1]: > 20 fold
- fold increase in Ki compared to peptide 1 [2]: > 30 fold

Substance: TAV (49) (peptide)
- Ki [1]: 42 µM
- Ki [2]: 37 µM

Substance: Tat-NR2B (3) (peptide)
- Ki [1]: 14 µM
- Ki [3]: 9.8 µM
- Ki [2]: 4.4 µM
